Changes are numbered by the printed parent chain. Names and notes keep the numbering of the source.
How the values were obtained:
[1] = molecular target: T1, recombinant human IFN-αJ1 (human, UniProt P01567 24-189); assay: cell-based or functional assay
recombinant human IFN-αG [2] = molecular target: T2, recombinant human IFN-αG (human, UniProt P01569 24-189); assay: cell-based or functional assay
recombinant human IFN-αF [3] = molecular target: T3, recombinant human IFN-αF (human, UniProt P01568 24-189); assay: cell-based or functional assay
recombinant human IFN-αC [4] = molecular target: T4, recombinant human IFN-αC (human, UniProt P01566 24-189); assay: cell-based or functional assay
[5] = molecular target: T5, recombinant human IFN-α4a (human, UniProt P05014 24-189); assay: cell-based or functional assay
recombinant human IFN-α1 = molecular target: T6, recombinant human IFN-α1 (human, UniProt P0DY56 24-189); assay: SPR (Biacore), mAb immobilised, IFN-α injected
T6 construct: both come from gene 1; also called hIFN-α1; subtype 1 (Ala114)
Description: (§1) The purified monoclonal antibodies were immobilized in individual flow cells on a CM5 type sensor chip. Immobilizations were performed using a standard amine coupling procedure, aiming for an immobilization level of 1000 Resonance Units (RU).
(§2) HBS-EP pH 7.4 (10 mM HEPES, 150 mM NaCl, 3 mM EDTA and 0.005% Polysorbate P20) was used as running buffer, and diluent for the recombinant IFN-α's. Association (injection) was 4 min., followed by a 12 to 30 min. dissociation period. Flow rate was 50 μl/min. Experiments were performed at 25° C. Detection in all flow cells simultaneously. Flow cell #1 contained no immobilized antibody, and was used for subtraction of background and bulk.
(§3) Data was inspected for mass-transport limitations prior to calculation of the kinetic parameters.

[6] = molecular target: various IFN-α subtypes (those inhibited in the reporter gene assay of FIG. 5); assay: cell-based or functional assay
[7] = molecular target: T1, recombinant human IFN-αJ1; assay: SPR (Biacore), mAb amine-coupled on CM5 chip, IFN-α injected, 1:1 Langmuir fit
Description: as §1, §2, §3

recombinant human IFN-αC [8] = molecular target: T4, recombinant human IFN-αC; assay: as above
Description: as §1, §2, §3

recombinant human IFN-αG [9] = molecular target: T2, recombinant human IFN-αG; assay: as above
Description: as §1, §2, §3

recombinant human IFN-αK = molecular target: T7, recombinant human IFN-αK (human, UniProt P05013 24-189); assay: as above
T7 construct: also called hIFN-αK
Description: as §1, §2, §3

[10] = molecular target: T8, recombinant human IFN-αWA (human, UniProt P05015 24-189); assay: as above
T8 construct: also called hIFN-αWA
Description: as §1, §2, §3

recombinant human IFN-αI = molecular target: T9, recombinant human IFN-αI (human, UniProt P01571 24-189); assay: as above
T9 construct: also called hIFN-αI
Description: as §1, §2, §3

[11] = molecular target: T5, recombinant human IFN-α4a; assay: as above
Description: as §1, §2, §3

[12] = molecular target: T10, recombinant human IFN-αH2 (human, UniProt P01570 24-189); assay: as above
T10 construct: also called hIFN-αH2
Description: as §1, §2, §3

recombinant human IFN-αF [13] = molecular target: T3, recombinant human IFN-αF; assay: cell-based or functional assay; remark: listed apart in the source
recombinant human IFN-αC [14] = molecular target: T4, recombinant human IFN-αC; assay: cell-based or functional assay; remark: listed apart in the source
recombinant human IFN-αG [15] = molecular target: T2, recombinant human IFN-αG; assay: cell-based or functional assay; remark: listed apart in the source
recombinant human IFN-αF [16] = molecular target: T3, recombinant human IFN-αF; assay: cell-based or functional assay; remark: listed apart in the source
[17] = molecular target: recombinant human IFN-αA (human) (UniProt P01563); assay: cell-based or functional assay
[18] = molecular target: recombinant human IFN-αA (human) (UniProt P01563); assay: SPR (Biacore), mAb amine-coupled on CM5 chip, IFN-α injected, 1:1 Langmuir fit
[19] = molecular target: recombinant human IFN-αA (human) (UniProt P01563); assay: SPR (Biacore), KD normalised to hzACO-1

T2 sequence (P01569 24-189): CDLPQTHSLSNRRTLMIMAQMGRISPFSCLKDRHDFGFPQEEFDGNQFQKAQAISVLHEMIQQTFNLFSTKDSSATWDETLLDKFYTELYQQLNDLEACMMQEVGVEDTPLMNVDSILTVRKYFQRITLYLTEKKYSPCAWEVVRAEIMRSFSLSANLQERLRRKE
Sequence of recombinant human IFN-αA (human) (P01563 other isoform, or with tags, fused parts or gaps): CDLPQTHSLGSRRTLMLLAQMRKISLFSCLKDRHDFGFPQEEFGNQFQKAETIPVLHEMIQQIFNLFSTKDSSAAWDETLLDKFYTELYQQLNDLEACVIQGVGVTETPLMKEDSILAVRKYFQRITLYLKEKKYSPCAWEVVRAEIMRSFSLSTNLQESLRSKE
T1 sequence (P01567 24-189 limits assumed): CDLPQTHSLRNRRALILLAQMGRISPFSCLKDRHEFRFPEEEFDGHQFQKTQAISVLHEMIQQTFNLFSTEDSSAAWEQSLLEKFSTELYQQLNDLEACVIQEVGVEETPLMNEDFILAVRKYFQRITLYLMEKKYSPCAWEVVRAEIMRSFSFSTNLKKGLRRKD
T3 sequence (P01568 24-189): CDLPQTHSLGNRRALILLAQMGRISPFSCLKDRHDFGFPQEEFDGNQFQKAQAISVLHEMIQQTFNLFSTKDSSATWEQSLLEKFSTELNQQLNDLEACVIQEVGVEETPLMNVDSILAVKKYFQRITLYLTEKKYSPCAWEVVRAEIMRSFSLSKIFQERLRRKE
T4 sequence (P01566 24-189): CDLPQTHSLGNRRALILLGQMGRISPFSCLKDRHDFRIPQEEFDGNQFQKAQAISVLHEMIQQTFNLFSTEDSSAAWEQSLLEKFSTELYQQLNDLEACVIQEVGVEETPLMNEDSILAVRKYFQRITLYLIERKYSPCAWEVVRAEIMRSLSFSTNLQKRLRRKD
T5 sequence (P05014 24-189): as the sequence (P01566 24-189) above, with G19A, P26H, R37G, I38F, Q40E, N46H, I132T, R134K counted along it
T6 sequence (P0DY56 entry or part of it limits assumed): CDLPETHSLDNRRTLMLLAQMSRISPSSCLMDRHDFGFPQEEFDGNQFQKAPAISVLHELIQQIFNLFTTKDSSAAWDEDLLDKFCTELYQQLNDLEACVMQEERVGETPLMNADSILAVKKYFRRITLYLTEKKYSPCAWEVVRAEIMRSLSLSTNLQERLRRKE
T10 sequence (P01570 24-189): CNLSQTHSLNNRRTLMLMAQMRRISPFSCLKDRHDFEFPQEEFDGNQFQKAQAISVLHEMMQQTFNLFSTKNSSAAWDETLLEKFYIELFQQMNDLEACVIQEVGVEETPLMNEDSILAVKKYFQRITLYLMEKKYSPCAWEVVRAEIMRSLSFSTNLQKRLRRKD
T7 sequence (P05013 24-189): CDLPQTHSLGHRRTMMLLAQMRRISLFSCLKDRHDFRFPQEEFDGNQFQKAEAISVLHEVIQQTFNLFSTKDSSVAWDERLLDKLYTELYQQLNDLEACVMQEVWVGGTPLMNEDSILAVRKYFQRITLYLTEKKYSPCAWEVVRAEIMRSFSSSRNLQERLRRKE
T8 sequence (P05015 24-189): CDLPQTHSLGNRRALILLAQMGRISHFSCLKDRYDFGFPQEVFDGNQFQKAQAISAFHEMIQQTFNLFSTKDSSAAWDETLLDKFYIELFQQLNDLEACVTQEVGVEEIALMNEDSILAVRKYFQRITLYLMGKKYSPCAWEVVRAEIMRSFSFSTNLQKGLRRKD
T9 sequence (P01571 24-189): as the sequence (P01566 24-189) above, with G19A, R37G, I38L, A51T, D95N, V106M, I132T, R134K, R161I counted along it

B1: ACO-1 (murine anti-IFN-α antibody, recombinant) (antibody, V domains shown)
VH: QVQLQQPGAELVKPGASVKLSCKASGYTFTNYWMHWVKQRPGQGLEWIGEINPSHGRTIYNENFKSKATLTVDKSSITAFMQLSSLTSEDSAVYFCARGGLGPAWFAYWGQGTLVTVSA
VL: QIVLTQSPAIMSASPGEKVTLTCSAGSSVDSSYLYWYQQKPGSSPKLWIYSTSNLASGVPARFSGSGSGTSYSLTISSMEAEDAASYFCHQWSSYPFTFGSGTKLEIKR
IC50 value relative to hzACO-1 (RG assay) [1]: 0.58 | IC50 value relative to hzACO-1 (RG assay) (recombinant human IFN-αG [2]): 0.56 | IC50 value relative to hzACO-1 (RG assay) (recombinant human IFN-αF [3]): 0.82

B2: hzACO-1 (humanized ACO-1) (antibody, human IgG4, V domains shown)
VH: QVQLVQSGAEVKKPGASVKVSCKASGYTFTNYWMHWVRQAPGQGLEWMGEINPSHGRTIYAQKFQGRVTMTRDTSTSTVYMELSSLRSEDTAVYYCARGGLGPAWFAYWGQGTLVTVSS
VL: EIVLTQSPATLSLSPGERATLSCSAGSSVDSSYLYWYQQKPGQAPRLLIYSTSNLASGIPARFSGSGSGTDFTLTISSLEPEDFAVYYCHQWSSYPFTFGQGTKLEIKR
notes: also called hzACO-1 IgG4; hzACO-1-IgG4
IC50 (read off the curve) (CPE assay) (recombinant human IFN-αC [4]): ~0.008 µg/mL | IC50 (read off the curve) (CPE assay) [5]: ~0.06 µg/mL | binding result (recombinant human IFN-α1): no binding | IC50, reporter gene (Mx promoter-luciferase) assay in 93D7 cells [6]: 0.028 to 0.314 µg/mL | Kd [7]: 4.81 nM | Kd (recombinant human IFN-αC [8]): 1.05 nM | Kd (recombinant human IFN-αG [9]): 0.92 nM | Kd (recombinant human IFN-αK): 1.44 nM | Kd [10]: 4.1 nM | Kd (recombinant human IFN-αI): 2.81 nM | Kd [11]: 3.45 nM | Kd [12]: 3.21 nM | IC50 (reporter gene assay, Mx promoter-luciferase in 93D7 cells) (recombinant human IFN-αF [13]): 0.277 µg/mL | IC50 (read off the curve) (reporter gene assay) (recombinant human IFN-αC [14]): ~0.03 µg/mL | IC50 (read off the curve) (reporter gene assay) (recombinant human IFN-αG [15]): ~0.05 µg/mL | IC50 (read off the curve) (reporter gene assay) (recombinant human IFN-αF [16]): ~0.3 µg/mL

B3: hzACO-1-A93V (antibody, human IgG4, name in Kabat numbering, V domains shown)
VH: B2 VH with A97V
VL: B2 VL
IC50 (reporter gene assay, Mx promoter-luciferase in 93D7 cells) (recombinant human IFN-αF [13]): 0.156 µg/mL

B4: hzACO-1-kabat CDRH2 (antibody, V domains shown)
VH: B2 VH with A61N, Q62E, K63N, Q65K, G66S
VL: EIVLTQSPATLSLSPGERATLSCSAGSSVDSSYLYWYQQKPGQAPRLLIYSTSNLASGIPARFSGSGSGTDFTLTISSLEPEDFAVYYCHQWSSYPFTFGQGTKLEIK
IC50 value relative to hzACO-1 (RG assay) [1]: 1.15 | IC50 value relative to hzACO-1 (RG assay) (recombinant human IFN-αG [2]): 0.78 | IC50 value relative to hzACO-1 (RG assay) (recombinant human IFN-αF [3]): 0.95 | IC50 value relative to hzACO-1 (RG assay) [17]: 0.95 | koff [18]: 0.000341 s⁻¹ | kon [18]: 205000 M⁻¹ s⁻¹ | KD mAb/KD hzACO-1 [19]: 0.9

Source: US20130101602A1 (ARGOS THERAPEUTICS, published 2013)
